Laboratory results taken from patent US20230407373A1 (priority 2020, published 2023).
Like-named read-outs stand apart in the source and are kept apart here.

B1: PGK2 (protein, UniProt P07205 2-417, looked up)
Phosphoglycerate kinase 2: SLSKKLTLDKLDVRGKRVIMRVDFNVPMKKNQITNNQRIKASIPSIKYCLDNGAKAVVLMSHLGRPDGVPMPDKYSLAPVAVELKSLLGKDVLFLKDCVGAEVEKACANPAPGSVILLENLRFHVEEEGKGQDPSGKKIKAEPDKIEAFRASLSKLGDVYVNDAFGTAHRAHSSMVGVNLPHKASGFLMKKELDYFAKALENPVRPFLAILGGAKVADKIQLIKNMLDKVNEMIIGGGMAYTFLKVLNNMEIGASLFDEEGAKIVKDIMAKAQKNGVRITFPVDFVTGDKFDENAQVGKATVASGISPGWMGLDCGPESNKNHAQVVAQARLIVWNGPLGVFEWDAFAKGTKALMDEIVKATSKGCITVIGGGDTATCCAKWNTEDKVSHVSTGGGASLELLEGKILPGVEALSNM
B2: FUS (protein, UniProt P35637 1-526, looked up)
RNA-binding protein FUS: MASNDYTQQATQSYGAYPTQPGQGYSQQSSQPYGQQSYSGYSQSTDTSGYGQSSYSSYGQSQNTGYGTQSTPQGYGSTGGYGSSQSSQSSYGQQSSYPGYGQQPAPSSTSGSYGSSSQSSSYGQPQSGSYSQQPSYGGQQQSYGQQQSYNPPQGYGQQNQYNSSSGGGGGGGGGGNYGQDQSSMSSGGGSGGGYGNQDQSGGGGSGGYGQQDRGGRGRGGSGGGGGGGGGGYNRSSGGYEPRGRGGGRGGRGGMGGSDRGGFNKFGGPRDQGSRHDSEQDNSDNNTIFVQGLGENVTIESVADYFKQIGIIKTNKKTGQPMINLYTDRETGKLKGEATVSFDDPPSAKAAIDWFDGKEFSGNPIKVSFATRRADFNRGGGNGRGGRGRGGPMGRGGYGGGGSGGGGRGGFPSGGGGGGGQQRAGDWKCPNPTCENMNFSWRNECNQCKAPKPDGPGGGPGGSHMGGNYGDDRRGGRGGYDRGGYRGRGGDRGGFRGGRGGGDRGGFGPGKMDSRGEHRQDRRERPY
B3: MYEF2 (protein, UniProt Q9P2K5 1-600, looked up)
Myelin expression factor 2: MADANKAEVPGATGGDSPHLQPAEPPGEPRREPHPAEAEKQQPQHSSSSNGVKMENDESAKEEKSDLKEKSTGSKKANRFHPYSKDKNSGAGEKKGPNRNRVFISNIPYDMKWQAIKDLMREKVGEVTYVELFKDAEGKSRGCGVVEFKDEEFVKKALETMNKYDLSGRPLNIKEDPDGENARRALQRTGGSFPGGHVPDMGSGLMNLPPSILNNPNIPPEVISNLQAGRLGSTIFVANLDFKVGWKKLKEVFSIAGTVKRADIKEDKDGKSRGMGTVTFEQAIEAVQAISMFNGQFLFDRPMHVKMDDKSVPHEEYRSHDGKTPQLPRGLGGIGMGLGPGGQPISASQLNIGGVMGNLGPGGMGMDGPGFGGMNRIGGGIGFGGLEAMNSMGGFGGVGRMGELYRGAMTSSMERDFGRGDIGINQGFGDSFGRLGSAMIGGFAGRIGSSNMGPVGSGISGGMGSMNSVTGGMGMGLDRMSSSFDRMGPGIGAILERSIDMDRGFLSGPMGSGMRERIGSKGNQIFVRNLPFDLTWQKLKEKFSQCGHVMFAEIKMENGKSKGCGTVRFDSPESAEKACRIMNGIKISGREIDVRLDRNA
B4: EDF1 (protein, UniProt O60869 2-148, looked up)
Endothelial …: AESDWDTVTVLRKKGPTAAQAKSKQAILAAQRRGEDVETSKKWAAGQNKQHSITKNTAKLDRETEELHHDRVTLEVGKVIQQGRQSKGLTQKDLATKINEKPQVIADYESGRAIPNNQVLGKIERAIGLKLRGKDIGKPIEKGPRAK
B5: KHSRP (protein, UniProt Q92945 2-711, looked up)
Far upstream element-binding …: SDYSTGGPPPGPPPPAGGGGGAGGAGGGPPPGPPGAGDRGGGGPGGGGPGGGSAGGPSQPPGGGGPGIRKDAFADAVQRARQIAAKIGGDAATTVNNSTPDFGFGGQKRQLEDGDQPESKKLASQGDSISSQLGPIHPPPRTSMTEEYRVPDGMVGLIIGRGGEQINKIQQDSGCKVQISPDSGGLPERSVSLTGAPESVQKAKMMLDDIVSRGRGGPPGQFHDNANGGQNGTVQEIMIPAGKAGLVIGKGGETIKQLQERAGVKMILIQDGSQNTNVDKPLRIIGDPYKVQQACEMVMDILRERDQGGFGDRNEYGSRIGGGIDVPVPRHSVGVVIGRSGEMIKKIQNDAGVRIQFKQDDGTGPEKIAHIMGPPDRCEHAARIINDLLQSLRSGPPGPPGGPGMPPGGRGRGRGQGNWGPPGGEMTFSIPTHKCGLVIGRGGENVKAINQQTGAFVEISRQLPPNGDPNFKLFIIRGSPQQIDHAKQLIEEKIEGPLCPVGPGPGGPGPAGPMGPFNPGPFNQGPPGAPPHAGGPPPHQYPPQGWGNTYPQWQPPAPHDPSKAAAAAADPNAAWAAYYSHYYQQPPGPVPGPAPAPAAPPAQGEPPQPPPTGQSDYTKAWEEYYKKIGQQPQQPGAPPQQDYTKAWEEYYKKQAQVATGGGPGAPPGSQPDYSAAWAEYYRQQAAYYGQTPGPGGPQPPPTQQGQQQAQ
B6: ATXN2L: host protein, UniProt Q8WWM7 (protein, UniProt Q8WWM7 1-1075, looked up)
Ataxin-2-like protein: MLKPQPLQQPSQPQQPPPTQQAVARRPPGGTSPPNGGLPGPLATSAAPPGPPAAASPCLGPVAAAGSGLRRGAEGILAPQPPPPQQHQERPGAAAIGSARGQSTGKGPPQSPVFEGVYNNSRMLHFLTAVVGSTCDVKVKNGTTYEGIFKTLSSKFELAVDAVHRKASEPAGGPRREDIVDTMVFKPSDVMLVHFRNVDFNYATKDKFTDSAIAMNSKVNGEHKEKVLQRWEGGDSNSDDYDLESDMSNGWDPNEMFKFNEENYGVKTTYDSSLSSYTVPLEKDNSEEFRQRELRAAQLAREIESSPQYRLRIAMENDDGRTEEEKHSAVQRQGSGRESPSLASREGKYIPLPQRVREGPRGGVRCSSSRGGRPGLSSLPPRGPHHLDNSSPGPGSEARGINGGPSRMSPKAQRPLRGAKTLSSPSNRPSGETSVPPPPAVGRMYPPRSPKSAAPAPISASCPEPPIGSAVPTSSASIPVTSSVSDPGVGSISPASPKISLAPTDVKELSTKEPGRTLEPQELARIAGKVPGLQNEQKRFQLEELRKFGAQFKLQPSSSPENSLDPFPPRILKEEPKGKEKEVDGLLTSEPMGSPVSSKTESVSDKEDKPPLAPSGGTEGPEQPPPPCPSQTGSPPVGLIKGEDKDEGPVAEQVKKSTLNPNAKEFNPTKPLLSVNKSTSTPTSPGPRTHSTPSIPVLTAGQSGLYSPQYISYIPQIHMGPAVQAPQMYPYPVSNSVPGQQGKYRGAKGSLPPQRSDQHQPASAPPMMQAAAAAGPPLVAATPYSSYIPYNPQQFPGQPAMMQPMAHYPSQPVFAPMLQSNPRMLTSGSHPQAIVSSSTPQYPSAEQPTPQALYATVHQSYPHHATQLHAHQPQPATTPTGSQPQSQHAAPSPVQHQAGQAPHLGSGQPQQNLYHPGALTGTPPSLPPGPSAQSPQSSFPQPAAVYAIHHQQLPHGFTNMAHVTQAHVQTGITAAPPPHPGAPHPPQVMLLHPPQSHGGPPQGAVPQSGVPALSASTPSPYPYIGHPQGEQPGQAPGFPGGADDRIREFSLAGGIWHGRAEGLQVGQDARVLGGE
B7: PABPN1 (protein, UniProt Q86U42 2-306, looked up)
Polyadenylate-binding protein …: AAAAAAAAAAGAAGGRGSGPGRRRHLVPGAGGEAGEGAPGGAGDYGNGLESEELEPEELLLEPEPEPEPEEEPPRPRAPPGAPGPGPGSGAPGSQEEEEEPGLVEGDPGDGAIEDPELEAIKARVREMEEEAEKLKELQNEVEKQMNMSPPPGNAGPVIMSIEEKMEADARSIYVGNVDYGATAEELEAHFHGCGSVNRVTILCDKFSGHPKGFAYIEFSDKESVRTSLALDESLFRGRQIKVIPKRTNRPGISTTDRGFPRARYRARTTNYNSSRSRFYSGFNSRPRGRVYRGRARATSWYSPY

Columns and labels:
Type in all cases: binding
[1] = test system: SARS-CoV-2 gRNA; details: for target (unweighted spectral count in RNP capture): Probe I capture, LC-MS/MS LFQ; for background (unweighted spectral count in control): no-probe control pull-down, used as background for Probe I; for target (unweighted spectral count of the protein in the RNP capture): LC-MS/MS, Probe I sample (first 199 lines of Table 2)
[2] = test system: SARS-CoV-2 gRNA and sgRNAs; details: for target (unweighted spectral count in RNP capture): Probe II capture, LC-MS/MS LFQ; for background (unweighted spectral count in control): no-probe control pull-down, used as background for Probe II
[3] = test system: HCoV-OC43 gRNA and sgRNA; details: for target (unweighted spectral count, OC43 Probe II capture) / target (unweighted spectral count): tested against no-probe control; for target (unweighted spectral count, OC43 Probe II capture): FDR<10%; for target (unweighted spectral count): OC43 Probe II, infected cells; for target (unweighted spectral count, OC43 Probe II) / background (unweighted spectral count, no-probe control): type n_48_v, 48 hpi; for target (unweighted spectral count, OC43 Probe II): OC43 Probe II capture on infected cells; for background (unweighted spectral count, no-probe control): no-probe control on infected cells

Molecule | target (unweighted spectral count in RNP capture) [1] | background (unweighted spectral count in control) [1] | target (unweighted spectral count of the protein in the RNP capture experiment) ([2]; […], LC-MS/MS label-free quantification, probe pool not given) | back-ground (unweighted spectral count of the protein in the control experiment) ([2]; protein background of the control (e.g. no-probe) experiment, […]) | target (unweighted spectral count of the protein in the RNP capture) [1] | target (unweighted spectral count in RNP capture) ([2]; […]) | background (unweighted spectral count in control) [2] | target (unweighted spectral count, OC43 Probe II capture) ([3]; 36 hpi, type n_36_v) | target (unweighted spectral count) ([3]; 12 hpi (type n_12_v)) | target (unweighted spectral count) ([3]; 24 hpi (type n_24_v)) | target (unweighted spectral count, OC43 Probe II) [3] | background (unweighted spectral count, no-probe control) [3] | target (unweighted spectral count, OC43 Probe II capture) ([3]; 24 hpi, type n_24_v) | target (spectral count) ([3]; type s_36_m, HCoV-OC43-infected HCT-8 cells, 36 hpi, Probe II) | background (spectral count) ([3]; type s_36_m, uninfected-probe control, 36 hpi, Probe II)
B1 | 5 | 1 | 5 | 1 | – | – | – | – | – | – | – | – | – | – | –
B2 | – | – | – | – | 5 | 7 | 1 | 7 | 6 | 9 | 11 | 1 | – | – | –
B3 | – | – | – | – | 19 | – | 1 | – | – | – | – | – | – | – | –
B4 | 5 | 1 | – | – | – | 8 | 1 | – | – | – | – | – | 4 | – | –
B5 | – | – | – | – | 128 | 82 | 1 | 76 | 23 | 47 | 86 | 5 | – | – | –
B6 | – | – | – | – | 9 | 28 | 1 | 10 | 4 | 6 | 12 | 1 | – | 10 | 1
B7 | – | – | – | – | 12 | 11 | 1 | – | – | – | 8 | 2 | 5 | – | –
